Assay results taken from paper PMC9352680, “A comprehensive thermodynamic model for RNA binding by the Saccharomyces cerevisiae Pumilio protein PUF4”.
Changes are numbered by the printed parent chain. Numbers in names are those of the source.

T1: PUF4 RNA-binding domain (Saccharomyces cerevisiae, UniProt P25339 537-888)
T1 sequence: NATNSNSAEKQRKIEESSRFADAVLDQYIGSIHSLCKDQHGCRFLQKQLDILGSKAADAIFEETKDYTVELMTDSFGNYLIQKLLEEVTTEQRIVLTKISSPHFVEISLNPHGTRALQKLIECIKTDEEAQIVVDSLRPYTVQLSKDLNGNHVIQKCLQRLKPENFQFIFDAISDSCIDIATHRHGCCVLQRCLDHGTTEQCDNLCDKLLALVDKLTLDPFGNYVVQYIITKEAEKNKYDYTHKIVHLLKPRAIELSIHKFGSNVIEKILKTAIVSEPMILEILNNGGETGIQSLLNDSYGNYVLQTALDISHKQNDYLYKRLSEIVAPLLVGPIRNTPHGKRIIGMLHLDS

B1: Id_ii_S2_P3E.2_K3.1_C3.2_[T-1A]_H3.1_A3.1_F3.1_T3.2 (ssRNA)
RNA: UUUGAUUAAUAUGAUAUCGUUCUUUCUCAUGUAUAUAUAUUCUUUCUCGAUAUCAUAUUAAUCUUU
B2: Id_ii_S2_P3E.2_K3.1_C3.2_H3.1_A3.1_F3.1_T3.2_[T9G]_[A10C] (ssRNA)
RNA: B1 RNA with A29U, U38G, A39C
B3: Id_ii_S2_P3E.2_K3.1_C3.2_H3.1_A3.1_F3.1_T3.2_[T9G]_[A10T] (ssRNA)
RNA: B1 RNA with A29U, U38G, A39U
B4: Id_ii_S2_P3E.2_K3.1_C3.2_H3.1_A3.1_F3.1_T3.2_[T9A]_[A10T] (ssRNA)
RNA: B1 RNA with A29U, U38A, A39U
B5: Id_ii_S2_P3E.2_K3.1_C3.2_H3.1_A3.1_F3.1_T3.2_[T9A] (ssRNA)
RNA: B1 RNA with A29U, U38A
B6: Id_ii_S2_P3E.2_K3.1_C3.2_H3.1_A3.1_F3.1_T3.2_[A10G] (ssRNA)
RNA: B1 RNA with A29U, A39G
B7: Id_ii_S2_P3E.2_K3.1_C3.2_H3.1_A3.1_F3.1_T3.2_[A10C] (ssRNA)
RNA: B1 RNA with A29U, A39C
B8: Id_ii_S2_P3E.2_K3.1_C3.2_H3.1_A3.1_F3.1_T3.2_[A10T] (ssRNA)
RNA: B1 RNA with A29U, A39U
B9: If_S2_P3E.2_K3.1_C3.2_H3.1_A3.1_F3.1_T3.2 (ssRNA)
RNA: B1 RNA with A29U
B10: Id_ii_S2_P3E.3_K3.2_C3.2_[C-2G]_[T-1G]_H3.2_A3.1_F3.1_T3.2_[T9A]_[A10C] (ssRNA)
RNA: B1 RNA with C28G, A29G, G31A, U38A, A39C
B11: Id_ii_S2_P3E.3_K3.2_C3.2_[C-2G]_[T-1G]_H3.2_A3.1_F3.1_T3.2_[T9A] (ssRNA)
RNA: B1 RNA with C28G, A29G, G31A, U38A
B12: Id_ii_S2_P3E.3_K3.2_C3.2_[C-2G]_[T-1G]_H3.2_A3.1_F3.1_T3.2_[A10T] (ssRNA)
RNA: B1 RNA with C28G, A29G, G31A, A39U
B13: Id_ii_S2_P3E.3_K3.2_C3.2_[C-2G]_[T-1C]_H3.2_A3.1_F3.1_T3.2_[T9C]_[A10C] (ssRNA)
RNA: B1 RNA with C28G, A29C, G31A, U38C, A39C
B14: Id_ii_S2_P3E.3_K3.2_C3.2_[C-2G]_[T-1C]_H3.2_A3.1_F3.1_T3.2_[T9A]_[A10C] (ssRNA)
RNA: B1 RNA with C28G, A29C, G31A, U38A, A39C
B15: Id_ii_S2_P3E.3_K3.2_C3.2_[C-2G]_[T-1C]_H3.2_A3.1_F3.1_T3.2_[A10T] (ssRNA)
RNA: B1 RNA with C28G, A29C, G31A, A39U
B16: Id_ii_S2_P3E.3_K3.2_C3.2_[C-2G]_H3.2_A3.1_F3.1_T3.2_[T9C]_[A10G] (ssRNA)
RNA: B1 RNA with C28G, A29U, G31A, U38C, A39G
B17: Id_ii_S2_P3E.3_K3.2_C3.2_[C-2G]_H3.2_A3.1_F3.1_T3.2_[T9C]_[A10C] (ssRNA)
RNA: B1 RNA with C28G, A29U, G31A, U38C, A39C
B18: Id_ii_S2_P3E.3_K3.2_C3.2_[C-2G]_H3.2_A3.1_F3.1_T3.2_[T9A]_[A10T] (ssRNA)
RNA: B1 RNA with C28G, A29U, G31A, U38A, A39U
B19: Id_ii_S2_P3E.3_K3.2_C3.2_[C-2G]_H3.2_A3.1_F3.1_T3.2_[A10G] (ssRNA)
RNA: B1 RNA with C28G, A29U, G31A, A39G
B20: Id_ii_S2_P3E.3_K3.2_C3.2_[C-2G]_H3.2_A3.1_F3.1_T3.2_[A10C] (ssRNA)
RNA: B1 RNA with C28G, A29U, G31A, A39C
B21: Id_ii_S2_P3E.3_K3.2_C3.2_[C-2G]_H3.2_A3.1_F3.1_T3.2_[A10T] (ssRNA)
RNA: B1 RNA with C28G, A29U, G31A, A39U
B22: Id_ii_S2_P3E.3_K3.2_C3.2_[C-2T]_[T-1G]_H3.2_A3.1_F3.1_T3.2_[T9G]_[A10C] (ssRNA)
RNA: B1 RNA with C28U, A29G, G31A, U38G, A39C
B23: Id_ii_S2_P3E.3_K3.2_C3.2_[C-2T]_[T-1G]_H3.2_A3.1_F3.1_T3.2_[T9G]_[A10T] (ssRNA)
RNA: B1 RNA with C28U, A29G, G31A, U38G, A39U
B24: Id_ii_S2_P3E.3_K3.2_C3.2_[C-2T]_[T-1G]_H3.2_A3.1_F3.1_T3.2_[T9A]_[A10T] (ssRNA)
RNA: B1 RNA with C28U, A29G, G31A, U38A, A39U
B25: Id_ii_S2_P3E.3_K3.2_C3.2_[C-2T]_[T-1G]_H3.2_A3.1_F3.1_T3.2_[T9A] (ssRNA)
RNA: B1 RNA with C28U, A29G, G31A, U38A
B26: Id_ii_S2_P3E.3_K3.2_C3.2_[C-2T]_[T-1G]_H3.2_A3.1_F3.1_T3.2_[A10G] (ssRNA)
RNA: B1 RNA with C28U, A29G, G31A, A39G
B27: Id_ii_S2_P3E.3_K3.2_C3.2_[C-2T]_[T-1G]_H3.2_A3.1_F3.1_T3.2_[A10C] (ssRNA)
RNA: B1 RNA with C28U, A29G, G31A, A39C

Molecular target: T1, PUF4 RNA-binding domain
Test: Mg; RNA-MaP; 20 mM Na-HEPES pH 7.4, 30 mM KOAc, 0.75 mM MgCl2, 0.1% Tween-20, 5% glycerol, 0.1 mg/mL BSA, 2 mM DTT; 25 C; 0.0125-409.6 nM protein
Conditions: tags: N-His6-TEV cleaved; C-SNAP kept, Cy3B-labelled; label: tethered on chip by stalled RNA polymerase

Row | Binder | Kd [nM]
1 | B1 | 1.35
2 | B2 | 2.46
3 | B3 | 4.32
4 | B4 | 1.9
5 | B5 | 2.73
6 | B6 | 2.02
7 | B7 | 1.61
8 | B8 | 1.32
9 | B9 | 1.16
10 | UCUCUUUGUGUUACUAUCUCUU (ssRNA) [Ib_S1_P5E.1_K5.1_C5.1_H5.1_[A4G]_A5.1_F5.1_[T8C]_T5.1] | 51.5
11 | B10 | 1450
12 | B11 | 872
13 | B12 | 137
14 | B13 | 329
15 | B14 | 592
16 | B15 | 86.4
17 | B16 | 291
18 | B17 | 31.2
19 | B18 | 36.2
20 | B19 | 22.9
21 | UCUCUUUGUCUUACUAUCUCUU (ssRNA) [Ib_S1_P5E.1_K5.1_C5.1_H5.1_[A4C]_A5.1_F5.1_[T8C]_T5.1] | 86.7
22 | B20 | 15.1
23 | B21 | 9.18
24 | B22 | 2.63
25 | B23 | 3.83
26 | B24 | 1.67
27 | B25 | 2.25
28 | B26 | 1.52
29 | B27 | 1.72
